{
  "source": "paper PMC6993976",
  "about": "“Insulin BBB pharmacokinetics in young apoE male and female transgenic mice” (PLoS ONE, 2020)",
  "key": {"[1]": {"test_system": "blood-brain barrier (BBB)", "experiment": "BBB pharmacokinetic transport of 125I-insulin, multiple-time regression analysis (Ki, Vi)", "format": "in vivo, mouse (human E3- and E4-targeted replacement mice)", "conditions": "for Insulin transport rate Ki / Reversible vascular binding (Vi): n = 7-10 mice/group; for Ki (unidirectional influx from blood to brain) / Vi (reversible vascular binding): whole brain; for Ki (unidirectional influx from blood to brain): multiple-time regression, ± SE", "experimental": "Mice were anesthetized with an intraperitoneal injection of 0.1 mL 40% urethane to minimize pain and distress. […] We correct for the exact amount of radioactivity injected based on serum levels. […] Blood from the left carotid artery was collected between 0.5–10 min after intravenous injection. Mice were immediately decapitated and their whole brains quickly removed and weighed. The arterial blood was centrifuged at 5400g for 10 min at 4°C and serum collected. The brains were dissected into regions according to the method of [27] and weighed. The levels of radioactivity in serum (50 μL) and brain regions were counted in a gamma counter (Wizard2, Perkin Elmer, Waltham, MA). […] Expt was calculated from the formula: Exposuretime=∫0tCp(t)dt/Cp(t) (1) where Cp is the level of radioactivity (cpm) in serum at time (t). Expt corrects for the clearance of peptide from the blood. […] The influx of insulin was calculated by multiple-time regression analysis as described by Patlak, Blasberg, and Fenstermacher: Am/Cpt=Ki(∫0tCp(t)dt/Cp(t))+Vi (2) where Am is level of radioactivity (cpm) per g of brain tissue at time t, Cpt is the level of radioactivity (cpm) per mL arterial serum at time t, Ki (μL/g-min) is the unidirectional solute influx from blood to brain, and Vi (μL/g) is the level of rapid and reversible binding for the brain vasculature. The brain/serum (B/S) ratios for insulin were corrected for vascular space by subtracting the corresponding ratio for albumin, yielding a delta B/S ratio. The linear portion of the relation between the delta B/S ratio versus Expt was used to calculate the Ki (μL/g-min) with its standard error term, and the y-intercept determined as representation of the Vi (μL/g) for each brain region. For whole brain, the weights and cpm of all individual brain regions except for the olfactory bulb were summed to calculate the B/S ratio. […] All anesthetized mice were killed by decapitation at the end of the study.\nRegression analysis and other statistical analyses were performed with the use of Prism 8.0 (GraphPad Software Inc., San Diego, CA, USA). Brain weight means are reported with their standard error terms and compared by two-way analysis of variance (ANOVA) followed by Sidak’s post hoc test to determine differences due to genotype or sex. […] For pharmacokinetic studies (multiple-time regression analysis), the slope of the linear regression lines (Ki), reported with their correlation coefficients (r), and y-intercepts (Vi) were compared statistically with the Prism 8.0 software package, as described."}, "[2]": {"test_system": "blood-brain barrier (BBB)", "conditions": "in vivo; cited from earlier work", "source_text": "Our studies are designed to investigate the transfer of human ^125I-insulin from the periphery to the CNS. Rat and human insulin are transported across the BBB at similar rates and are both saturable by excess respective peptide. […] We used the well-described multiple-time regression analysis technique first described by Patlak, Blasberg, and Fenstermacher. This an ..."}, "[3]": {"parameters": "species or system mouse (human E3- and E4-targeted replacement mice)", "conditions": "in vivo", "experimental": "Mice were anesthetized with an intraperitoneal injection of 0.1 mL 40% urethane to minimize pain and distress. […] We correct for the exact amount of radioactivity injected based on serum levels. […] Blood from the left carotid artery was collected between 0.5–10 min after intravenous injection. Mice were immediately decapitated and their whole brains quickly removed and weighed. The arterial blood was centrifuged at 5400g for 10 min at 4°C and serum collected. The brains were dissected into regions according to the method of [27] and weighed. The levels of radioactivity in serum (50 μL) and brain regions were counted in a gamma counter (Wizard2, Perkin Elmer, Waltham, MA). […] Expt was calculated from the formula: Exposuretime=∫0tCp(t)dt/Cp(t) (1) where Cp is the level of radioactivity (cpm) in serum at time (t). Expt corrects for the clearance of peptide from the blood. […] The influx of insulin was calculated by multiple-time regression analysis as described by Patlak, Blasberg, and Fenstermacher: Am/Cpt=Ki(∫0tCp(t)dt/Cp(t))+Vi (2) where Am is level of radioactivity (cpm) per g of brain tissue at time t, Cpt is the level of radioactivity (cpm) per mL arterial serum at time t, Ki (μL/g-min) is the unidirectional solute influx from blood to brain, and Vi (μL/g) is the level of rapid and reversible binding for the brain vasculature. […]"}, "[4]": {"test_system": "blood-brain barrier (BBB)", "parameters": "method as in PMID 30044494", "conditions": "in vivo; cited from earlier work"}},
  "data": [
    {"substance": "125I-insulin: Human insulin (Sigma-Aldrich) radioactively labeled with Na125I by the chloramine-T method", "values": [
      {"measurement": "Insulin transport rate Ki", "setting": "[1]; E3 Female, Cerebellum", "value": 1.189, "unit": "µL/g/min"},
      {"measurement": "Reversible vascular binding (Vi)", "setting": "[1]; E3 Female, Cerebellum", "value": 8.36, "unit": "µL/g"},
      {"measurement": "Insulin transport rate Ki", "setting": "[1]; E3 Female, Frontal Cortex", "value": 0.796, "unit": "µL/g/min"},
      {"measurement": "Reversible vascular binding (Vi)", "setting": "[1]; E3 Female, Frontal Cortex", "value": 4.65, "unit": "µL/g"},
      {"measurement": "Insulin transport rate Ki", "setting": "[1]; E3 Female, Hippocampus, ns = non-significant transport", "value": "ns"},
      {"measurement": "Insulin transport rate Ki", "setting": "[1]; E3 Female, Hypothalamus", "value": 1.541, "unit": "µL/g/min"},
      {"measurement": "Reversible vascular binding (Vi)", "setting": "[1]; E3 Male, Parietal Cortex", "value": 4.17, "unit": "µL/g"},
      {"measurement": "Insulin transport rate Ki", "setting": "[1]; E3 Male, Pons/Medulla", "value": 0.739, "unit": "µL/g/min"},
      {"measurement": "Insulin transport rate Ki", "setting": "[1]; E3 Male, Striatum, ns = non-significant transport", "value": "ns"},
      {"measurement": "Insulin transport rate Ki", "setting": "[1]; E3 Male, Thalamus, ns = non-significant transport", "value": "ns"},
      {"measurement": "Insulin transport rate Ki", "setting": "[1]; E4 Female, Cerebellum", "value": 2.110, "unit": "µL/g/min"},
      {"measurement": "Reversible vascular binding (Vi)", "setting": "[1]; E4 Female, Cerebellum", "value": 8.91, "unit": "µL/g"},
      {"measurement": "Insulin transport rate Ki", "setting": "[1]; E4 Female, Frontal Cortex", "value": 0.720, "unit": "µL/g/min"},
      {"measurement": "Reversible vascular binding (Vi)", "setting": "[1]; E4 Female, Olfactory Bulb", "value": 11.71, "unit": "µL/g"},
      {"measurement": "Insulin transport rate Ki", "setting": "[1]; E4 Female, Parietal Cortex", "value": 0.859, "unit": "µL/g/min"},
      {"measurement": "Reversible vascular binding (Vi)", "setting": "[1]; E4 Female, Parietal Cortex", "value": 3.31, "unit": "µL/g"},
      {"measurement": "Insulin transport rate Ki", "setting": "[1]; E4 Female, Pons/Medulla", "value": 1.111, "unit": "µL/g/min"},
      {"measurement": "Insulin transport rate Ki", "setting": "[1]; E4 Female, Striatum, ns = non-significant transport", "value": "ns"},
      {"measurement": "Insulin transport rate Ki", "setting": "[1]; E4 Female, Thalamus", "value": 0.634, "unit": "µL/g/min"},
      {"measurement": "Insulin transport rate Ki", "setting": "[1]; E4 Male, Cerebellum, ns = non-significant transport", "value": "ns"},
      {"measurement": "Insulin transport rate Ki", "setting": "[1]; E4 Male, Frontal Cortex", "value": 1.023, "unit": "µL/g/min"},
      {"measurement": "Reversible vascular binding (Vi)", "setting": "[1]; E4 Male, Frontal Cortex", "value": 5.90, "unit": "µL/g"},
      {"measurement": "Insulin transport rate Ki", "setting": "[1]; E4 Male, Hippocampus, ns = non-significant transport", "value": "ns"},
      {"measurement": "Insulin transport rate Ki", "setting": "[1]; E4 Male, Hypothalamus", "value": 2.272, "unit": "µL/g/min"},
      {"measurement": "Reversible vascular binding (Vi)", "setting": "[1]; E4 Male, Hypothalamus", "value": 5.63, "unit": "µL/g"},
      {"measurement": "Insulin transport rate Ki", "setting": "[1]; E4 Male, Midbrain", "value": 0.887, "unit": "µL/g/min"},
      {"measurement": "Reversible vascular binding (Vi)", "setting": "[1]; E4 Male, Midbrain", "value": 6.38, "unit": "µL/g"},
      {"measurement": "Insulin transport rate Ki", "setting": "[1]; E4 Male, Occipital Cortex", "value": 0.793, "unit": "µL/g/min"},
      {"measurement": "Reversible vascular binding (Vi)", "setting": "[1]; E4 Male, Occipital Cortex", "value": 6.71, "unit": "µL/g"},
      {"measurement": "Insulin transport rate Ki", "setting": "[1]; E4 Male, Olfactory Bulb", "value": 1.712, "unit": "µL/g/min"},
      {"measurement": "Reversible vascular binding (Vi)", "setting": "[1]; E4 Male, Olfactory Bulb", "value": 13.31, "unit": "µL/g"},
      {"measurement": "Insulin transport rate Ki", "setting": "[1]; E4 Male, Parietal Cortex", "value": 0.920, "unit": "µL/g/min"},
      {"measurement": "Reversible vascular binding (Vi)", "setting": "[1]; E4 Male, Parietal Cortex", "value": 4.74, "unit": "µL/g"},
      {"measurement": "Insulin transport rate Ki", "setting": "[1]; E4 Male, Pons/Medulla, ns = non-significant transport", "value": "ns"},
      {"measurement": "Insulin transport rate Ki", "setting": "[1]; E4 Male, Striatum, ns = non-significant transport", "value": "ns"},
      {"measurement": "Insulin transport rate Ki", "setting": "[1]; E4 Male, Thalamus", "value": 1.203, "unit": "µL/g/min"},
      {"measurement": "Reversible vascular binding (Vi)", "setting": "[1]; E4 Male, Thalamus", "value": 4.56, "unit": "µL/g"},
      {"measurement": "Ki (unidirectional influx from blood to brain)", "setting": "[1]; Female E3, iv, albumin-corrected", "value": "1.128 ± 0.32", "unit": "µL/g/min"},
      {"measurement": "Vi (reversible vascular binding)", "setting": "[1]; Female E3, y-intercept of multiple-time regression", "value": "4.41 ± 2.31", "unit": "µL/g"},
      {"measurement": "Ki (unidirectional influx from blood to brain)", "setting": "[1]; Female E4", "value": "1.033 ± 0.28", "unit": "µL/g/min"},
      {"measurement": "Vi (reversible vascular binding)", "setting": "[1]; Female E4, y-intercept of multiple-time regression", "value": "7.17 ± 2.07", "unit": "µL/g"},
      {"measurement": "Vi (reversible vascular binding)", "setting": "[1]; Female, genotypes Combined", "value": "7.84 ± 1.26", "unit": "µL/g"},
      {"measurement": "Ki (unidirectional influx from blood to brain)", "setting": "[1]; Female, genotypes Combined", "value": "0.691 ± 0.16", "unit": "µL/g/min"},
      {"measurement": "Vi (reversible vascular binding)", "setting": "[1]; Male E3, y-intercept of multiple-time regression", "value": "7.17 ± 0.95", "unit": "µL/g"},
      {"measurement": "Ki (unidirectional influx from blood to brain)", "setting": "[1]; Male E4", "value": "0.781 ± 0.32", "unit": "µL/g/min"},
      {"measurement": "Vi (reversible vascular binding)", "setting": "[1]; Male E4, y-intercept of multiple-time regression", "value": "8.23 ± 2.13", "unit": "µL/g"},
      {"measurement": "Vi (reversible vascular binding)", "setting": "[1]; Male, genotypes Combined", "value": "7.88 ± 1.09", "unit": "µL/g"},
      {"measurement": "Ki (unidirectional influx from blood to brain)", "setting": "[1]; Male, genotypes Combined", "value": "0.803 ± 0.17", "unit": "µL/g/min"},
      {"measurement": "Whole brain transport rate, average previously observed", "setting": "[2]", "value": "0.71 ± 0.17", "unit": "µL/g/min"},
      {"measurement": "Serum clearance rate, slower in males compared to females", "setting": "[3]", "value": "> 2", "unit": "fold"},
      {"measurement": "Distribution between brain capillary and brain parenchyma", "setting": "[4]", "value": "enters the brain parenchyma"}
    ]}
  ]
}
